Measured values published in article PMC12148588 (2025).
Read-outs that look alike come from different tables or passages of the source.

What was measured:
[1] = target: T1, SARS-CoV-2 RBD of the Wuhan strain (Acro Biosystems SPD-C82E9-25) (SARS-CoV-2, UniProt P0DTC2); test: SPR
[2] = target: T1, SARS-CoV-2 RBD of the Wuhan strain …; test: SPR; remark: listed apart in the source

B1: MB025_A09L (antibody, V domains shown)
VH: EVQLVESGGGLVQPGGSLRLSCAASGFSVSIFYMNWVRQAPGKGLEWVSSVYSGETTYYADSVRGRFTISRDNSKSTLYLQMNSLRPEDTAVYYCARGVDYRTNRTEGGAFDIWGQGTMVTVSS
VL: QSALTQPASVSGSPGQSIPISCTGTSSDFGNYNLISWYQQHPGKAPKLMIYEGTKRPSGVSDRFSGSKSANTASLTISGLQAEDEADYYCCSYAGSSTWMFGGGTKLTVL
Kd [1]: 0.00491 nM

B2: MB043_CL39 (antibody, V domains shown)
VH: EVQLVETGGGLIHPGGSLRLSCAASEFIVSYNYMSWVRQAPGKGLEWVSVIYSGGSTFYADAVKGRFTISRDSSKNTLDLLMNSLRVEDTAVYYCARVLPSNTDYFDYWGQGILVTVSS
VL: QSVLTQPPSVSGATGQRVTISCTGSNSNIGAGSDVHWYQQLPGAAPKLLIYVNNNRPSGVPDRFSGSKSGTSASLAITGLQAEDEADYYCQSYDSSLSGYVFGTGTKVTVL
Kd [2]: 0.0273 nM

B3: MB027_D06L (antibody, V domains shown)
VH: EVQLVETGGGLIQPGGSLRLSCAASGFIVSSNYMSWVRQAPGKGLEWVSIIYSGGSTFYADAVKGRFTISRDNSKNTLDLQMNSLRAEDTAVYYCARVLPTSTDYFDYWGQGILVTVSS
VL: QSVLTQPPSVSGAPGQRVTISCTGSNSNIGAGSDVHWYQHLPGTAPTLLIYSNSNRPSGVPDRFSGSKSGTSASLAITGLQAEDEADYYCQSYDSSLSTYVFGTGTKVTVL
Kd [2]: 7.17 nM

B4: MB025_A07K (antibody, V domains shown)
VH: EVQLVESGGDLVQPGGSLRLSCAASEFIVSSNYMSWVRQTPGKGLEWISVLYSGGSTFYADSVKGRFTISRDNSKNTLYLQMNSLRVEDTAVYYCARDFGEFWFDYWGQGTLVTVSS
VL: EIVLTQSPGTLSLSPGERATLSCRASQTINSYLAWYQQKPGQAPRLLIYGASSRATGIPDRFSGSGSGTDFTLTISRLEPEDFAVYYCQQYGNSPRTFGQGTKVEIK
Kd [1]: 0.159 nM
